Target: monobody L3 E29Q labeled with EDANS at A12C
Assay: fluorescence polarisation

B1: Fluc homologue from Bordetella pertussis, Bpe (natural protein)
chain: MLTYAPLNFIAIGIGATLGAWLRWVLGLRLNGAGWPWGTLTANLVGGYLIGVMVALIASHPEWPAWIRLAAVTGFLGGLTTFSTFSAETVDMLERGVYATAAAYAGASLAGSLAMTGLGLATVRLLLR
For B1, which Kd is on record?
The Kd was 150 nM.

Source: publication PMC5379923
